# Data reported in publication PMC11901735.
# Legend:
# [1] = biological target: GLP-1R of mouse pancreatic β-cells (mouse (endogenous in ddY mouse pancreas)) (UniProt O35659)
# [2] = biological target: Recombinant human GLP-1R protein (human) (UniProt P43220); assay: SPR; Biacore T200; recombinant human GLP-1R (0.5 μM) immobilized on a CM5 sensor chip; peptides injected at four-fold serial dilutions (0, 0.1-100 nM); n = 3; 1:1 interaction model
# Sequence of Recombinant human GLP-1R protein (human) (P43220 24-463): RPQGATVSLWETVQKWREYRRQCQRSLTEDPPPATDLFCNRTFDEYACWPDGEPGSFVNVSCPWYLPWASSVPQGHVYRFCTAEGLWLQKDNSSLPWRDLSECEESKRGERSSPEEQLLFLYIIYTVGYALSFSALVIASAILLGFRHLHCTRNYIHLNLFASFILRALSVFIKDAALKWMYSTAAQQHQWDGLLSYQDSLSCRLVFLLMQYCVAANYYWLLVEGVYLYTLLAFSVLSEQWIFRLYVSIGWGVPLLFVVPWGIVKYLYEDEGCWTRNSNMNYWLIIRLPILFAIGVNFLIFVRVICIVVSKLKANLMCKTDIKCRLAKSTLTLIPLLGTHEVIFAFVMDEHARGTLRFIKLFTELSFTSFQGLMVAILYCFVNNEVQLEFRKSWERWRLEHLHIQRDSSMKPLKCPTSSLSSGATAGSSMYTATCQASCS
# Sequence of GLP-1R of mouse pancreatic β-cells (mouse (endogenous in ddY mouse pancreas)) (O35659 22-463): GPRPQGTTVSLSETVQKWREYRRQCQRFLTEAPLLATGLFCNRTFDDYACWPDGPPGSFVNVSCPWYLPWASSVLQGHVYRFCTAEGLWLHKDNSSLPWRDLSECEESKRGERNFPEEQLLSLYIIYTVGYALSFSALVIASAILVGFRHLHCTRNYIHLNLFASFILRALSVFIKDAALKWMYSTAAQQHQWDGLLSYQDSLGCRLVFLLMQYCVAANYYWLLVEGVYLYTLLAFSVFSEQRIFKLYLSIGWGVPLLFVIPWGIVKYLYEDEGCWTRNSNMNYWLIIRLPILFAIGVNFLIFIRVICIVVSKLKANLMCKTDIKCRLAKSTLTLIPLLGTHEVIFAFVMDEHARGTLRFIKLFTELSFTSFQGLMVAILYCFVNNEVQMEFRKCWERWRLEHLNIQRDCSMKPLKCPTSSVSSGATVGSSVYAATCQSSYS
substance,measurement,setting,value
"I-Ex-4, Ex-4-C40 labeled with IPM at the additional C-terminal Cys (peptide)",radioactivity in the pancreas 5-120 min after i.v. administration of [^125I]I-Ex-4 to mice (highest at 60 min) (% injected dose per gram tissue),[1],11.3
same,Kd,[2],28.1 nM
